Assays:
MS2 coat protein [1] = assay: apparent KD of MS2 coat protein; designed switch direction (-1 OFF switch, 1 ON switch): 1; higher = weaker reporter binding
Procedure, shortened: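 Designed RNA switches with common flanks were made on Illumina chips by stalled E. coli RNA polymerase. Titration with SNAP-549-labelled MS2 coat protein doubled from 0.7 or 1.5 nM up to 3 µM. Apparent KD is each design's median over clusters after curve-fitting normalised fluorescence.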

MS2 coat protein [2] = assay: apparent KD of MS2 coat protein; higher = weaker reporter binding; conditions: Eterna round: R107
Procedure, shortened: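 Each design's apparent KD comes from the median of binding-curve fits to its normalised clusters. Those clusters carried RNA switches transcribed on-chip from Illumina sequencing clusters. SNAP-549-labelled MS2 coat protein was titrated onto them in twofold steps (0.7 or 1.5 nM to 3 µM; per step 0.8–1.5 h down to 10–20 min). Conditions were 100 mM Tris-HCl pH 7.5, 80 mM KCl, 4 mM MgCl2, without or with constant ligand.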

[3] = input ligand: microRNA oligo, concentration not stated
[4] = Eterna round: R95, input ligand: FMN 200 uM
[5] = Eterna round: R95, input ligand: microRNA oligo, concentration not stated
[6] = Eterna round: R95, input ligand: none
[7] = input ligand: theophylline 20 uM
[8] = input ligand: tryptophan 2.4 mM
[9] = input ligand: theophylline 2 mM

Row | Sequence | apparent KD of MS2 coat protein (MS2 coat protein [1]; input ligand: FMN 200 uM) [nM] | apparent KD of MS2 coat protein (MS2 coat protein [1]; [3]) [nM] | apparent KD of MS2 coat protein (MS2 coat protein [1]; input ligand: none) [nM] | apparent KD of MS2 coat protein (MS2 coat protein [2]; input ligand: arginine 13.2 mM) [nM] | apparent KD of MS2 coat protein (MS2 coat protein [2]; [7]) [nM] | apparent KD of MS2 coat protein (MS2 coat protein [2]; [8]) [nM] | other results
1 | AAAAAAAAGUCAGGAUAUGAAUGGAAAGUACAUGAGGAUCACCCAUGUUAUGGAAAAAAAAAACGUUAGAAGGGAUAAAAAAAA [AK SSNG2-V2-1] (Eterna round: R96, puzzle: Same State NG 2) | 61.3 | 90.2 | 62.3 |  |  |  | 
2 | AAAAAACAUGAGGAUCACCCAUGUAAAAAAAUGGGAGGAUAUACAAAAACAAAAAAAAAAGUAGAAGGCCUGAAAA [same state 9] (Eterna round: R96, puzzle: Same State 1) | 59.2 | 478 | 520 |  |  |  | 
3 | AAAAGAAGAAGUAAGGAUAUUCAAAAGAAAACAUGAGGAUCACCCAUGUACCAAAAGAAAGAAAAGAAGAAGGUACACAAGAAAA [Same State 2 #3] (puzzle: Same State 2) |  |  |  |  |  |  | apparent KD of MS2 coat protein (MS2 coat protein [1]; [4]): 24.7 nM; apparent KD of MS2 coat protein (MS2 coat protein [1]; [5]): 23.2 nM; apparent KD of MS2 coat protein (MS2 coat protein [1]; [6]): 22.8 nM
4 | AAAAGACAUGAGGAUCACCCAUGUAUGAAAAGUACAGGAUAUCACGCGCUAAAAUGCGAGUGAGAAGGGUGAAAAU [Oronen] (puzzle: Same State 1) |  |  |  |  |  |  | apparent KD of MS2 coat protein (MS2 coat protein [1]; [4]): 4350 nM; apparent KD of MS2 coat protein (MS2 coat protein [1]; [5]): 51.3 nM; apparent KD of MS2 coat protein (MS2 coat protein [1]; [6]): 180 nM
5 | AAAAUAAAUACAGGAUAUAGCCGCCUAAAGCGGCUAGAAGGGUAGAUCGAAAUACAUGAGGAUCACCCAUGUGCACGUAAGUGC [Eresesgeti] (Eterna round: R96, puzzle: Same State NG 1) | 775 | 527 | 1350 |  |  |  | 
6 | AAAAUCUACGAAAGUAGAACAAGCUUAAGACAUGAGGAUCACCCAUGUCAUGUCUUAAAACAUGAGGAAACUCAUGA [hsa-mir-208a sensor: 17] (Eterna round: R96, puzzle: Sensor for hsa-mir-208a) | 273 | 182 | 252 |  |  |  | 
7 | AAAAUUGAAUUACAUCUGCUCGUCAUACAACAUGAGGAUCACCCAUGUAACAUCAAACAACCAACCAAACACAAAUC [Ceeslage] (Eterna round: R96, puzzle: Sensor for hsa-mir-208a) | 20.1 | 17.5 | 22.3 |  |  |  | 
8 | AAACGCAGCAUAUCGCUGCGACAUGAGGAUCACCCAUGUACACAGGAUAUCGCAGCAUACCGCCGCGAGAAGGGUGAUCAAGAC [Anonlete] (Eterna round: R96, puzzle: Same State NG 3) | 99.3 | 16.3 | 33.9 |  |  |  | 
9 | UUAUUUAUAAAUGAUACCAGCCGAUUGGCCGCAAAUCCUAACAUGAGGAUCACCCAUGUCGGCCCUUGGCAGCAUUUAUGGGUUU [XTheo B #28] |  |  |  | 56 | 134 | 65.1 | 
10 | UUAUUUAUAAUGGAUACCAGUUUAAUGGCCGCAAAUCCUGACAUGAGGAUCACCCAUGUAAGCCCUUGGCAGCUGUUAUGGGUUU [XTheo B #24] |  |  |  | 34.2 | 47.3 | 35.2 | 
11 | UUAUUUAUAGGGUAUAUCAGAUUAACUGAAGGAGCGUGGUAAUUCACAGGUAGGUCGCAGAUGGAACAUGAGGAUCACCCAUGUU [JR_ExcArginiA_Sub015] |  |  |  | 18.2 | 28.5 | 20.8 | apparent KD of MS2 coat protein (MS2 coat protein [2]; input ligand: none): 19.2 nM; apparent KD of MS2 coat protein (MS2 coat protein [2]; [9]): 22.2 nM
12 | UUCGUUUGCGGAAGGAGCGACGGACAUCGGUGAACGACGGACAUGAGGAUCACCCAUGUACGUCAGGUAGGUCGCCGCUAAGAGU [Enbiceri] |  |  |  | 13.7 | 13.8 | 13.8 | apparent KD of MS2 coat protein (MS2 coat protein [2]; input ligand: none): 13.2 nM; apparent KD of MS2 coat protein (MS2 coat protein [2]; [9]): 15.2 nM
13 | UUCUGGUCCCGUGAUACCAGAGACAUGAGGAUCACCCAUGUACAUGAGGAUCACCCAUGUUUCCCUUGGCAGCACUGCAGUGAGC [Exclusion Theophylline B GF 15] |  |  |  | 56 | 160 | 147 | apparent KD of MS2 coat protein (MS2 coat protein [2]; input ligand: none): 261 nM; apparent KD of MS2 coat protein (MS2 coat protein [2]; [9]): 332 nM
14 | UUCUUUAAGUCGGCCGCCACUGAAACAUGAGGAUCACCCAUGUAAAUUUGGGAGUAGGUAUAUUACAGGACCGGGACUAUAGUAA [JR_ExcTryptoB_Sub021] |  |  |  | 29.2 | 31.2 |  | apparent KD of MS2 coat protein (MS2 coat protein [2]; [9]): 27.3 nM

Source: the supplement of paper PMC9170038
